In patent publication US20220396620A1 (Takeda / Millennium, published 2022):

Tests used:
[1] = target: T1, human cannabinoid receptor type 1 (CB1) (human, UniProt P21554 1-472); test: FACS, titration on CB1 over-expressing CHO cells
T1 construct: DiscoverX cAMP Hunter CHO-K1 CNR1 Gi cells for cAMP and pERK assays; also called huCB1; huCB-1
Method: (§1) Antibody binding was tested in a fluorescence activated cell sorting (FACS)-based assay for the ability of the mouse anti-CB1 antibodies to bind parental CHO cells, human CB-1 overexpressing CHO cells and mouse CB-1 overexpressing CHO cells to obtain binding curves and EC50 values. The three cell lines were harvested, washed and dispensed at 1×10⁵ cells per well of a v-bottomed 96-well polycarbonate FACS plates (Corning, Corning, N.Y., Cat. No. 3357) in 50 μl of FACS buffer (1×PBS/2 mM EDTA and 1% FBS (ThermoFisher Scientific, Anaheim, Calif.; Cat. No. 10438-026). Serial dilutions of the antibodies were prepared at 2× concentrations starting at 200 nM and serially diluted 3-fold. The titrated antibodies were added to the plates containing the three different cell lines (parental, human and mouse CB-1 CHO cells) and incubated at 4° C. for 1 hour. The plates were washed 3× with FACS buffer. […] None of the eight functional antibodies tested were mouse cross reactive (FIG. 3).

[2] = target: T1, human cannabinoid receptor type 1 (CB1); test: cell-based or functional assay
[3] = target: T2, mouse CB-1 (mouse, UniProt P47746 1-473); test: flow cytometry on CHO-Mouse CB1 cells, 3-fold antibody titration from 200 nM
T2 construct: whole, on cells; also called moCB1; moCB1-CHO cells
T2 sequence (P47746 whole entry): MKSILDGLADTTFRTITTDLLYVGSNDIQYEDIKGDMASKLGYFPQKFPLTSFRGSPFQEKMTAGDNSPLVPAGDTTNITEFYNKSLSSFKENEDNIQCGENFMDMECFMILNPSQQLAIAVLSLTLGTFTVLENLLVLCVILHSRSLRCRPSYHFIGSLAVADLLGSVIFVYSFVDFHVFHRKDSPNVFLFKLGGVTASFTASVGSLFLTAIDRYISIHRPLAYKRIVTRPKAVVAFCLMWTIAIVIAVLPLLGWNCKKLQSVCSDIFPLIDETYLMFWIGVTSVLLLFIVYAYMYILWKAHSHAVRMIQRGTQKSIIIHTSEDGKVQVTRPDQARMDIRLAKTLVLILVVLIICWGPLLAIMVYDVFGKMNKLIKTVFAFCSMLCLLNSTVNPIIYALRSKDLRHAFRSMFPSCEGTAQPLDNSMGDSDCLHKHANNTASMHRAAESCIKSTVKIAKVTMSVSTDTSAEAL
Method: as §1

[4] = target: T1, human cannabinoid receptor type 1 (CB1); test: flow cytometry, single point at 30 ug/mL antibody, signal on CHO-huCB-1 cells relative to CHO parental cells

T1 sequence (P21554 whole entry): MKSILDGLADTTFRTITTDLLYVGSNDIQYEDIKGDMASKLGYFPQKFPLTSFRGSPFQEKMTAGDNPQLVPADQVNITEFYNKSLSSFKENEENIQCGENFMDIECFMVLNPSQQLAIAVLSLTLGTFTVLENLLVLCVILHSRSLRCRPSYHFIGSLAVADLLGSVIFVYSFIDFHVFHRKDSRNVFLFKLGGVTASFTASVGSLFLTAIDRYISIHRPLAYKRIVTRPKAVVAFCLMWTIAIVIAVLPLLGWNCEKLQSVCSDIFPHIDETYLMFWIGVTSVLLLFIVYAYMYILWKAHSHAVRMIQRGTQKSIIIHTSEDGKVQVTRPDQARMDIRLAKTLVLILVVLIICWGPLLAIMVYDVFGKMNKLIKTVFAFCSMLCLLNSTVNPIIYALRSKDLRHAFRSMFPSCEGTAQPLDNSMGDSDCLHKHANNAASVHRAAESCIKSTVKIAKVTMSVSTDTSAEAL

Binder | EC50 [1] | Mean P-ERK (% inhibition) [2] | Mean cAMP (% Amgen) [2] | P-ERK IC50 (nM) Data Set 1 [2] | P-ERK IC50 (nM) Data Set 2 [2] | cAMP EC50 (nM) Data Set 1 [2] | cAMP EC50 (nM) Data Set 2 [2] | cAMP EC50 (nM) Data Set 3 [2] | binding result [4] | also measured
M1 mouse anti-huCB-1 antibody (antibody, V domains shown) VH: QVQLQQSGAELVRPGVSVKISCKGSGYTFTDHALHWVKQSQARSLEWIGIISTYYGDATYNQKFKGKATMTVDKSSSTAYMELARLTSEDSAFYYCARGGLYYGTNYRAMDYWGQGTSVTVSS VL: DIVMTQSQKFMSTSVGDRVSVTCKASQNVGSNVAWYQQKPGQSPKALIYSASYRYSGVPDRFTGSGSGTDFTLTISNVQSEDLAEYFCQQYNNYPFTFGSGTKLEIK | 15.7 nM | 68 % inhibition | 75 % Amgen | 163 nM | 165 nM | 43 nM | 170 nM | 150 nM | – | binding result [3]: no binding (tested: 200 nM)
M7-H8 humanized anti-CB1 antibody (antibody, human IgG1, kappa, L234A L235A, V domains shown) VH: QVQLVQSGAEVKKPGASVKLSCKASSYTFTRYWMNWVRQAPGQGLEWIGMIDPYDSETHYNQKFQGRATLTVDTSTSTAYMELSSLRSEDTAVYFCARSQPRYYAMDYWGQGTTVTVSS VL: DIQMTQSPSSLSASLGDRVTLTCRASQEISGFLSWLQLKPGKTIKRLIYAASSLDSGVPSRFSGSWSGTDYTLTISSLQPEDFADYYCLQYSSYPYTFGGGTKLEIKR | – | – | – | – | – | – | – | – | binds | –
M7-H13 humanized anti-CB1 antibody (antibody, human IgG1, kappa, L234A L235A, V domains shown) VH: QVQLVQSGAEVKKPGASVKLSCKASSYTFTRYWMNWVRQAPGQGLEWIGMIDPYDSETHYNQKFQGRATLTVDTSTSTAYMELSSLRSEDTAVYFCARSQPRYYAMDYWGQGTTVTVSS VL: DIQMTQSPSSLSASVGDRVTLTCRASQEISGFLSWLQLKPGKAIKRLIYAASSLDSGVPSRFSGSWSGTDYTLTISSLQPEDFADYYCLQYSSYPYTFGGGTKLEIKR | – | – | – | – | – | – | – | – | binds | –
M7-H12 humanized anti-CB1 antibody (antibody, human IgG1, kappa, L234A L235A) heavy: not shown light: DIQMTQSPSSLSASVGDRVTLTCRASQEISGFLSWLQLKPGKAIKRLIYAASSLDSGVPSRFSGSWSGTDYTLTISSLQPEDFADYYCLQYSSYPYTFGGGTKLEIKRTVAAPSVFIFPPSDEQLKSGTASVVCLLNNFYPREAKVQWKVDNALQSGNSQESVTEQDSKDSTYSLSSTLTLSKADYEKHKVYACEVTHQGLSSPVTKSFNRGEC | – | – | – | – | – | – | – | – | binds | –
M7-H11 humanized anti-CB1 antibody (antibody, human IgG1, kappa, L234A L235A, V domains shown) VH: QVQLVQSGAEVKKPGASVKVSCKASSYTFTRYWMNWVRQAPGQGLEWMGIIDPYDSETSYAQKFQGRVTMTRDTSTSTVYMELSSLRSEDTAVYYCARSQPRYYAMDYWGQGTTVTVSS VL: DIQMTQSPSSLSASLGDRVTLTCRASQEISGFLSWLQLKPGKTIKRLIYAASSLDSGVPSRFSGSWSGTDYTLTISSLQPEDFADYYCLQYSSYPYTFGGGTKLEIKR | – | – | – | – | – | – | – | – | binds | –
M7-H15 humanized anti-CB1 antibody (antibody, human IgG1, kappa, L234A L235A, V domains shown) VH: QVQLVQSGAEVKKPGASVKVSCKASSYTFTRYWMNWVKQRPGEGLEWMGMIDPYDSETHYNQKFQGKVTMTVDKSSSTVYMELSSLRSEDTAVYFCARSQPRYYAMDYWGQGTTVTVSS VL: DIQMTQSPSSLSASVGDRVTLTCRASQEISGFLSWLQLKPGKAIKRLIYAASSLDSGVPSRFSGSWSGTDYTLTISSLQPEDFADYYCLQYSSYPYTFGGGTKLEIKR | – | – | – | – | – | – | – | – | binds | –
M7-H16 humanized anti-CB1 antibody (antibody, human IgG1, kappa, L234A L235A, V domains shown) VH: QVQLVQSGAEVKKPGASVKVSCKASSYTFTRYWMNWVRQAPGQGLEWMGIIDPYDSETSYAQKFQGRVTMTRDTSTSTVYMELSSLRSEDTAVYYCARSQPRYYAMDYWGQGTTVTVSS VL: DIQMTQSPSSLSASVGDRVTLTCRASQEISGFLSWLQLKPGKAIKRLIYAASSLDSGVPSRFSGSWSGTDYTLTISSLQPEDFADYYCLQYSSYPYTFGGGTKLEIKR | – | – | – | – | – | – | – | – | binds | –
M7-H9 humanized anti-CB1 antibody (antibody, human IgG1, kappa, L234A L235A, V domains shown) VH: QVQLVQSGAEVKKPGASVKVSCKASSYTFTRYWMNWVRQAPGQGLEWMGMIDPYDSETHYNQKFQGRVTMTRDTSTSTVYMELSSLRSEDTAVYYCARSQPRYYAMDYWGQGTTVTVSS VL: DIQMTQSPSSLSASLGDRVTLTCRASQEISGFLSWLQLKPGKTIKRLIYAASSLDSGVPSRFSGSWSGTDYTLTISSLQPEDFADYYCLQYSSYPYTFGGGTKLEIKR | – | – | – | – | – | – | – | – | binds | –
M7-H10 humanized anti-CB1 antibody (antibody, human IgG1, kappa, L234A L235A, V domains shown) VH: QVQLVQSGAEVKKPGASVKVSCKASSYTFTRYWMNWVKQRPGEGLEWMGMIDPYDSETHYNQKFQGKVTMTVDKSSSTVYMELSSLRSEDTAVYFCARSQPRYYAMDYWGQGTTVTVSS VL: DIQMTQSPSSLSASLGDRVTLTCRASQEISGFLSWLQLKPGKTIKRLIYAASSLDSGVPSRFSGSWSGTDYTLTISSLQPEDFADYYCLQYSSYPYTFGGGTKLEIKR | – | – | – | – | – | – | – | – | binds | –
M7-H14 humanized anti-CB1 antibody (antibody, human IgG1, kappa, L234A L235A, V domains shown) VH: QVQLVQSGAEVKKPGASVKVSCKASSYTFTRYWMNWVRQAPGQGLEWMGMIDPYDSETHYNQKFQGRVTMTRDTSTSTVYMELSSLRSEDTAVYYCARSQPRYYAMDYWGQGTTVTVSS VL: DIQMTQSPSSLSASVGDRVTLTCRASQEISGFLSWLQLKPGKAIKRLIYAASSLDSGVPSRFSGSWSGTDYTLTISSLQPEDFADYYCLQYSSYPYTFGGGTKLEIKR | – | – | – | – | – | – | – | – | binds | –
M2 mouse anti-huCB-1 antibody (antibody, V domains shown) VH: EVQLQQSGPELVKPGTSVKISCKASGYTFTDYNMHWVKLGKSLEWIGYFYPDDGGSGYNQKFKGKATLTIDKSSSTAYMELHSLTSEDSAVYYCARGYGNSWGTYWGQGTLVTVSA VL: EIVLTQSPTTMAASPGEKITITCSASSRISSNYLYWYQQKPGFSPKLLIYRTSNLASGVPARFSGSGSGTSYSLTIGTMEAEDVATYYCQQGSSIPYTFGGGTKLEIK | 34.7 nM | 59 % inhibition | 49 % Amgen | 219 nM | 211 nM | 380 nM | 340 nM | 270 nM | – | –
M6 mouse anti-huCB-1 antibody (antibody, V domains shown) VH: EVQLQQSGPELVKPGASVKISCKASGYTFTDYNLHWVKHGKSLEWIGYIYPYDGDTGYKQKFKGKATLTADKSSSTAYMELRSLTCEDSAVYYCARGYGNSWGAYWGQGTLVTVSA VL: EIVLTQSPTTMAASPGEKITITCSATSSISSNYLHWYQQKPGFSPKLLIYRTSNLASGVPARFSGSGSGTSYSLTIGTMEAEDVATYYCQQGSSIPYTFGGGTKLEIK | 43.5 nM | 42 % inhibition | 21 % Amgen | 144 nM | 300 nM | 310 nM | 290 nM | 640 nM | – | –
M3 mouse anti-huCB-1 antibody (antibody, V domains shown) VH: QVQLQQSGPELVRPGVSVKISCKGSGYEFTDYALHWVKQSHAETLEWIGLITTYYGDTNYNQKFKGKATMTVDKSSSTAYMELARLTSEDSAIYYCARGGYYYGTDYRYFDVWGAGTTVTVSS VL: DILLTQSPAILSVSPGERVSFSCRASQSIGTNIHWYQQRPNGSPRLLIKYASESISGIPSRFSGSGSGSDFTLSINSVESEDIADYYCQQSITWPLTFGAGTKLELK | 61.6 nM | 59 % inhibition | 71 % Amgen | 296 nM | 534 nM | 290 nM | 290 nM | 330 nM | – | binding result [3]: no binding (tested: 200 nM)
